Laboratory results reported in article PMC9352680, “A comprehensive thermodynamic model for RNA binding by the Saccharomyces cerevisiae Pumilio protein PUF4”.

Experiments:
[1] = biological target: T1, PUF4 RNA-binding domain (Pumilio homology domain) (Saccharomyces cerevisiae) (UniProt P25339); assay: RNA-MaP; conditions: RNA-MaP: 20 mM Na-HEPES pH 7.4, 0.1% Tween-20, 5% glycerol, 0.1 mg/mL BSA, 2 mM DTT, low salt 0.75 mM MgCl2 + 30 mM KOAc (model data; high salt 2 mM MgCl2 + …)
T1 sequence: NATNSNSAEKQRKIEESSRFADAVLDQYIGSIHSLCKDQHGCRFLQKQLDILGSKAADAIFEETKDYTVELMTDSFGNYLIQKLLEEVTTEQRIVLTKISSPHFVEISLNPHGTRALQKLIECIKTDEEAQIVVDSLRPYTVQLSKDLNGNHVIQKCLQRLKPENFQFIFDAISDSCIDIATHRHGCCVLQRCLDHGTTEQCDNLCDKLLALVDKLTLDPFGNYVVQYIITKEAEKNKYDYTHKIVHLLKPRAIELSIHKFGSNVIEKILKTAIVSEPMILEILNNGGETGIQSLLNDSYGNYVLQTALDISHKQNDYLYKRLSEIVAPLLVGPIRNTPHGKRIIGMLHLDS

[2] = biological target: T2, PUF4 RNA-binding domain (Pumilio homology domain) (Saccharomyces cerevisiae, UniProt P25339 537-888); assay: RNA-MaP; ddG 1.641; RNA-MaP: 20 mM Na-HEPES pH 7.4, 0.1% Tween-20, 5% glycerol, 0.1 mg/mL BSA, 2 mM DTT, low salt 0.75 mM MgCl2 + 30 mM KOAc (model data; high salt 2 mM MgCl2 + 100 mM KOAc), 25 C; conditions: protein: recombinant; tags: C-terminal SNAP tag, Cy3B-labeled; N-terminal His tag removed with TEV; label: array RNA; single-stranded
T2 sequence: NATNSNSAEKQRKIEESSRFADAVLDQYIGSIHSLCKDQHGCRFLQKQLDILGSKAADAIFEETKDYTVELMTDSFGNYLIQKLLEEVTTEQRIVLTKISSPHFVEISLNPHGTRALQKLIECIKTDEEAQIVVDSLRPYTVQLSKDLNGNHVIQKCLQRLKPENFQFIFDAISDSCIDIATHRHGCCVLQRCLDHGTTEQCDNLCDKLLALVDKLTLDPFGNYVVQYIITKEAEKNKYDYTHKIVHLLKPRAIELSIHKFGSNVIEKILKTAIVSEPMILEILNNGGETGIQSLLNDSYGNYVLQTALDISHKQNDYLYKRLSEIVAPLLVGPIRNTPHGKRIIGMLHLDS

[3] = biological target: T2, PUF4 RNA-binding domain (Pumilio …); assay: RNA-MaP; ddG 0.961; RNA-MaP: 20 mM Na-HEPES pH 7.4, 0.1% Tween-20, 5% glycerol, 0.1 mg/mL BSA, 2 mM DTT, low salt 0.75 mM MgCl2 + 30 mM KOAc (model data; high salt 2 mM MgCl2 + 100 mM KOAc), 25 C; conditions: protein: recombinant; tags: C-terminal SNAP tag, Cy3B-labeled; N-terminal His tag removed with TEV; label: array RNA; single-stranded
[4] = biological target: T2, PUF4 RNA-binding domain (Pumilio …); assay: RNA-MaP; ddG 0.934; RNA-MaP: 20 mM Na-HEPES pH 7.4, 0.1% Tween-20, 5% glycerol, 0.1 mg/mL BSA, 2 mM DTT, low salt 0.75 mM MgCl2 + 30 mM KOAc (model data; high salt 2 mM MgCl2 + 100 mM KOAc), 25 C; conditions: protein: recombinant; tags: C-terminal SNAP tag, Cy3B-labeled; N-terminal His tag removed with TEV; label: array RNA; single-stranded
[5] = biological target: T2, PUF4 RNA-binding domain (Pumilio …); assay: EMSA (active-fraction titration); high salt: 2 mM MgCl2, 100 mM KOAc; 69% active protein; RNA-MaP: 20 mM Na-HEPES pH 7.4, 0.1% Tween-20, 5% glycerol, 0.1 mg/mL BSA, 2 mM DTT, low salt 0.75 mM MgCl2 + 30 mM KOAc (model data; high salt 2 mM MgCl2 + 100 mM KOAc), 25 C; conditions: protein: recombinant; tags: C-terminal SNAP tag, Cy3B-labeled; N-terminal His tag removed with TEV; label: 32P (trace) plus unlabeled; single-stranded
[6] = biological target: T2, PUF4 RNA-binding domain (Pumilio …); assay: RNA-MaP; ddG 3.526; RNA-MaP: 20 mM Na-HEPES pH 7.4, 0.1% Tween-20, 5% glycerol, 0.1 mg/mL BSA, 2 mM DTT, low salt 0.75 mM MgCl2 + 30 mM KOAc (model data; high salt 2 mM MgCl2 + 100 mM KOAc), 25 C; conditions: protein: recombinant; tags: C-terminal SNAP tag, Cy3B-labeled; N-terminal His tag removed with TEV; label: array RNA; single-stranded
[7] = biological target: T2, PUF4 RNA-binding domain (Pumilio …); assay: RNA-MaP; ddG 1.018; RNA-MaP: 20 mM Na-HEPES pH 7.4, 0.1% Tween-20, 5% glycerol, 0.1 mg/mL BSA, 2 mM DTT, low salt 0.75 mM MgCl2 + 30 mM KOAc (model data; high salt 2 mM MgCl2 + 100 mM KOAc), 25 C; conditions: protein: recombinant; tags: C-terminal SNAP tag, Cy3B-labeled; N-terminal His tag removed with TEV; label: array RNA; single-stranded
[8] = biological target: T2, PUF4 RNA-binding domain (Pumilio …); assay: RNA-MaP; ddG 1.591; RNA-MaP: 20 mM Na-HEPES pH 7.4, 0.1% Tween-20, 5% glycerol, 0.1 mg/mL BSA, 2 mM DTT, low salt 0.75 mM MgCl2 + 30 mM KOAc (model data; high salt 2 mM MgCl2 + 100 mM KOAc), 25 C; conditions: protein: recombinant; tags: C-terminal SNAP tag, Cy3B-labeled; N-terminal His tag removed with TEV; label: array RNA; single-stranded
[9] = biological target: T2, PUF4 RNA-binding domain (Pumilio …); assay: RNA-MaP; ddG 0.613; RNA-MaP: 20 mM Na-HEPES pH 7.4, 0.1% Tween-20, 5% glycerol, 0.1 mg/mL BSA, 2 mM DTT, low salt 0.75 mM MgCl2 + 30 mM KOAc (model data; high salt 2 mM MgCl2 + 100 mM KOAc), 25 C; conditions: protein: recombinant; tags: C-terminal SNAP tag, Cy3B-labeled; N-terminal His tag removed with TEV; label: array RNA; single-stranded

With UGUAUAUUAU in S1a scaffold as the molecule, how does the Kd [1] read?
The Kd was 0.88 nM.

With UGUAUCGCAC in S1b scaffold as the molecule, how does the Kd [1] read?
The Kd was over 2400 nM.

B1: S1a K3.1 A6C (ssRNA)
RNA: UCUCUUUGUAUCUAUCUCUU
Which Kd [2] does the source give for B1 here?
Its Kd is -9.98 ± 0.415 kcal/mol (dG=RTlnKd).

B2: S1a K4.1 T8G (ssRNA)
RNA: UCUCUUUGUAUAUGAUCUCUU
Which Kd [3] does the source give for B2 here?
Its Kd is -10.7 ± 0.299 kcal/mol (dG=RTlnKd).

B3: S1a K3.1 A8C (ssRNA)
RNA: UCUCUUUGUAUAUCUCUCUU
With B3 as the molecule, how does the Kd [4] read?
The Kd was -10.7 ± 0.225 kcal/mol (dG=RTlnKd).

B4: consensus RNA 14-mer (ssRNA)
RNA: AUGUGUAUAUUAGU
Does B4 bind [5]?
Result: binds

B5: S1a K3.1 A4C (ssRNA)
RNA: UCUCUUUGUCUAUAUCUCUU
B5 was tested. Which Kd [6] did it give?
The Kd was -8.09 ± 0.737 kcal/mol (dG=RTlnKd).

B6: S1a K3.1 A8G (ssRNA)
RNA: UCUCUUUGUAUAUGUCUCUU
How did the Kd [7] turn out when B6 was run?
Its Kd is -10.6 ± 0.24 kcal/mol (dG=RTlnKd).

B7: S1a K3.1 T7C (ssRNA)
RNA: UCUCUUUGUAUACAUCUCUU
With B7 as the molecule, how does the Kd [8] read?
The Kd was -10 ± 0.544 kcal/mol (dG=RTlnKd).

B8: S1a K4.1 T8C (ssRNA)
RNA: UCUCUUUGUAUAUCAUCUCUU
How did the Kd [9] turn out when B8 was run?
The Kd was -11 ± 0.259 kcal/mol (dG=RTlnKd).
